From patent US8852569B2, “Prevention and treatment of itch with cysteine protease inhibition” (The General Hospital Corporation, priority 2008, dated 2014)

Columns and labels:
[1] = tested on: PAR2; test: PAR activation by cytoplasmic calcium release in transfected HeLa cells (Fura-2 ratiometric imaging), PAR2; format: cell-based, human
Description: (§1) The responses to PAR 2 and 4 were blocked by the protease inhibitor E64 (10 μM) as a control). Other controls included vector alone and vector encoding the PAR1 receptor. Cathepsin S was added as indicated. The averages from at least three separate experiments were then combined +/−SD.
(§2) Salmon sperm (SS) DNA is used as control. The averages from at least three separate experiments were then combined +/−SD.
(§3) PAR activation observed by cytoplasmic calcium release—The four human PAR cDNAs were obtained from commercial sources and cloned into the pcDNA3.1(−) vector (INVITROGEN™ Inc.). HeLa cells were transfected with 10 μg of vector cDNA using Lipofectamine 2000 (INVITROGEN™ Inc.) and cultured for two days in 96-well glass bottom plates at 30,000 cells/well. Cells were loaded with Fura-2 as follows. The medium was aspirated and replaced with 100 μl of complete DMEM containing 2 μM Fura-2 (INVITROGEN™ Inc.) and kept at room temperature in the dark for 1 hr. The medium was again aspirated and each well received 90 μl of HEPES buffered saline (20 mM HEPES, 115 mM NaCl, 5.4 mM KCl, 2 mM CaCl2, 0.8 mM MgCl2, 13.8 mM glucose, pH 7.4). Plates were observed using a Zeiss Axiovert 200M microscope equipped with a filter wheel for monitoring excitation at 340 and 380 nm. Axiovision software, version 4.6 was used to analyze ratiometric calcium imaging of the cells. […]

[2] = Chromogenic substrate assay, protease activity of the purified recombinant cathepsins; format: biochemical; conditions: FIG. 1; protease 0.84 μM
Description: The concentrations of all the three proteases are at 0.84 μM and that of E64, a non-selective irreversible inhibitor of cysteine proteases, is at 2 μM […].
Papain served as a positive control cysteine protease. The cathepsin S and K were further evaluated for their capacity to activate PAR receptors as noted below.

[3] = tested on: PAR1; test: PAR activation by cytoplasmic calcium release in transfected HeLa cells (Fura-2 ratiometric imaging), PAR1; format: cell-based, human; conditions: HeLa cells transfected with PAR1
Description: as §1
as §3, with “cells. Ten μl of a 21 μM solution of recombinant human cathepsin S were applied approximately 20 seconds after the start of excitation.” for “cells.”

[4] = tested on: PAR4; test: PAR activation by cytoplasmic calcium release in transfected HeLa cells (Fura-2 ratiometric imaging), PAR4; format: cell-based, human
Description: as §1, §2, §3

[5] = tested on: human volunteers; test: Itch evoked by inactivated cowhage spicules reconstituted with cathepsin S, inserted into skin; format: in vivo
Description: Recombinant cathepsin S also evokes itch in human volunteers. In this experiment, native itch-evoking spicules from the plant Mucuna pruriens were inactivated by autoclaving for 1 hour and reconstituted with recombinant cathepsin S. Typically, 50 mg of inactivated spicules were mixed with 0.4 ml of 1 mg of recombinant cathepsin S in 0.1M NaCl with 0.01 M L-cysteine in a 2 ml microfuge tube, vortexed, dried in a Speed-vac for 2 hours at room temperature, vortexed again and transferred to a new tube. This second vortex step allowed for precipitated salt to be separated from the spicules. These spicules were then considered ‘reconstituted’ with the cathepsin S. Individual spicules were then superficially inserted approximately 0.2 mm into the skin of volunteers who rated the subsequent itch as “very strong”. The mean perceived intensity of itch and nociceptive sensation evoked by a single inactivated spicule reconstituted with cathepsin S on nine human volunteers is shown in FIG. 3A. The mean perceived intensity is similar with that for itch and nociceptive sensation evoked by a single spicule of native cowhage for the same nine volunteers.

[6] = cathepsin S 30 nM versus mucunain

Row | Molecule | concentration at which strong activation of PAR2 occurred (calcium flux) ([1]; HeLa cells transfected with PAR2) | activating concentration relative to that needed for stimulation via mucunain, PAR2 [1, 6] | capacity to cleave the chromogenic substrate Z-Phe-Arg-pNA [2] | activation of PAR1 (calcium flux) [3] | concentration at which strong activation of PAR4 occurred (calcium flux) ([4]; HeLa cells transfected with PAR4) | activating concentration relative to that needed for stimulation via mucunain, PAR4 [4, 6] | mean perceived intensity of itch and nociceptive sensation compared with a single spicule of native cowhage ([5]; nine human volunteers, FIG. 3A versus 3B) | itch rating by volunteers ([5]; single reconstituted spicule inserted approximately 0.2 mm into skin)
1 | cathepsin S: recombinant human cysteine protease, expressed in E. coli as zymogen and cleaved to active enzyme (protein) LPDSVDWREKGCVTEVKYQGSCGACWAFSAVGALEAQLKLKTGKLVSLSAQNLVDCSTEKYGNKGCNGGFMTTAFQYIIDNKGIDSDASYPYKAMDQKCQYDSKYRAATCSKYTELPYGREDVLKEAVANKGPVSVGVDARHPSFFLYRSGVYYEPSCTQNVNHGVLVVGYGDLNGKEYWLVKNSWGHNFGEEGYIRMARNKGNHCGIASFPSYPEI | 30 nM | at least ten-fold less | had protease activity | no activation | 30 nM | at least ten-fold less | similar | very strong
2 | cathepsin K: recombinant human cysteine protease, expressed in E. coli as zymogen and cleaved to active enzyme (protein) APDSVDYRKKGYVTPVKNQGQCGSCWAFSSVGALEGQLKKKTGKLLNLSPQNLVDCVSENDGCGGGYMTNAFQYVQKNRGIDSEDAYPYVGQEESCMYNPTGKAAKCRGYREIPEGNEKALKRAVARVGPVSVAIDASLTSFQFYSKGVYYDESCNSDNLNHAVLAVGYGIQKGNKHWIIKNSWGENWGNKGYILMARNKNNACGIANLASFPKM | – | – | had protease activity | – | – | – | – | –
